± gives the uncertainty stated by the source.

Our source for the amyloid nucleation score values is the supplement of paper PMC12042874.

A short description of this data set: amyloid nucleation score (Sup35N fusion, yeast selection) (log enrichment); library NNK3; higher = more nucleation; inactive = no reads after selection. An outline of the steps:
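Peptides of 20 random codons, each fused to Sup35N, were expressed in psi-negative yeast. Cells were induced with 100 μM copper sulfate for 24 hours and grown 7 days at 30°C on medium lacking adenine and uracil, and plasmid inserts before and after selection were Illumina-sequenced. Nucleation scores are DiMSum log enrichments of output over input reads, centred on the mode score of non-aggregating sequences, and sequences under 100 input reads were excluded.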
Turning to KEDKPESTDYNVNT, the amyloid nucleation score result was “inactive”. In turn, KEVTSLVLIVFT yielded an amyloid nucleation score of 0.58 ± 0.17. As for KFADQALTHSQYATFLTGLY, the entry is “inactive”; as for KFCASSCWMNYSVFGMYLSI, “inactive”. As for KFCVVSKTLFNFLTFWFEHG, the entry is “inactive”; as for KFIVVGYLGTIPTHPVGVPY, 0.6 ± 0.25; as for KFLITETGSEL, “inactive”. As for KFMCSNAF, the entry is “inactive”; as for KFPFSGPSRMTRRVMQRALL, “inactive”; as for KFSLCSVACFNK, 2.88 ± 0.052. Regarding KFSMMYLRYFVWFLRLIMAS, the amyloid nucleation score entry is “inactive”. To KFSYNVQLRVAWYVSGGSGT belongs “inactive”; to KFYDHTLCFVDWRDFSW, “inactive”. To KGFTDWFWCFTPVVEWKSIT belongs “inactive”; to KGKITCM, “inactive”; to KGRFVLLDTTAQLNI, “inactive”.

Take KGVGFPVCTSNG: the amyloid nucleation score result is “inactive”. To KGVGHSTLTIIFLLSALRFS belongs 1.02 ± 0.14; to KGVRCANNVLRKQRLENNNF, “inactive”; to KGYGCFTGMYSENARMMVIS, 0.136 ± 0.66. For the substance KICGNRPGVSRYLVGLDVMC, the amyloid nucleation score result is “inactive”. As for KIHRAGDYWVMSNR, the amyloid nucleation score entry was “inactive”. KIIRMF: the amyloid nucleation score result was “inactive”. As for KIMCGGTVSERETRTLHQSG, the amyloid nucleation score result was “inactive”.

Take KINLLSCLPVLRYYWISSLA: the amyloid nucleation score entry was “inactive”. Turning to KINVD, the amyloid nucleation score result is “inactive”. KIWNCVYVGWNIVVNNIKGL displayed an amyloid nucleation score of 2.66 ± 0.076.

Consider KKFLAPCSRCWPKMDITRLN, for which the amyloid nucleation score entry is “inactive”.

On to KKPPHRLTVLMTGIAM, for which the amyloid nucleation score entry was “inactive”. With KKSHCRTIYKSLV, the amyloid nucleation score result is “inactive”. As for KLCTVINRLYLHRGGNSNSQ, the entry is “inactive”. Consider KLDSLPEYFSATLWLDMSVF, for which the amyloid nucleation score result was “inactive”.

With KLEMYVARSCDCAYDRCWGR, the amyloid nucleation score entry was “inactive”.

Take KLKVVVIKNICFG: the amyloid nucleation score came to 1.82 ± 0.083. To KLLSMGVSTKRRT belongs “inactive”; to KLLSTRRCFRCLLGQWSLFM, 1.17 ± 0.14; to KLNGFPWRPAWHEVMAGWVW, “inactive”. Consider KLYYIVRCEFCRDCKMAWGN, for which the amyloid nucleation score amounted to 1.29 ± 0.094. As for KMDLFVRIVSCLVNGCQTTG, the entry is “inactive”; as for KMILRFFSI, 1.52 ± 0.063; as for KNFQPKTS, 0.082 ± 0.45.

Consider KNFSFKATDWIVKSSVARCR, for which the amyloid nucleation score result was “inactive”. Turning to KNIPFYIGWVEVSTAGARYP, the amyloid nucleation score result is “inactive”.

As for KNTSIK, the amyloid nucleation score result was “inactive”. For KNYCGKNEYVLCTD, the amyloid nucleation score entry is “inactive”.

Regarding KPPGLNRHYTSCDMLSWALN, the amyloid nucleation score result is “inactive”. To KPSSFNDAIR belongs “inactive”.

For KPTWQKEFVR, the amyloid nucleation score is 0.969 ± 0.19. For KPVYYQCLENISSFEC, the amyloid nucleation score entry was “inactive”.

Regarding KQCGTIG, the amyloid nucleation score result was “inactive”. As for KQGVILTNRVYAFALGSSTH, the entry is “inactive”; as for KQLHLMLIVQIVATKTVNAP, “inactive”. To KQVKMGVA belongs “inactive”; to KREECILWLPLGNLLYNVLR, “inactive”. To KRLLVKVLLDVIGAYRDSSC belongs “inactive”; to KRMWKGE, “inactive”. For the substance KRVDYCFMIGVMTCVNHPTE, the amyloid nucleation score entry is “inactive”. As for KRVLEGRFITVSM, the entry is “inactive”; as for KSDVS, “inactive”; as for KSLSIRFYWVSPWTVVWDSR, 0.872 ± 0.11.

Take KSNVLP: the amyloid nucleation score entry is “inactive”. As for KSSTNMEMRMSHLGLLIGEV, the entry is “inactive”; as for KSTRF, “inactive”; as for KSVKARYSDSSMW, “inactive”.

With KSYFANSG, the amyloid nucleation score result was “inactive”. To KSYLVFDPWGPAKSLFYTDM belongs “inactive”; to KSYMYILKWAVLVLCSRSGL, “inactive”; to KSYSAWSTVRDSKPTVLGN, “inactive”. As for KSYWCNVGAIENT, the entry is “inactive”; as for KTKGICSSMLVFC, “inactive”. To KTLIVVAVSFIWL belongs 0.887 ± 0.19; to KTLVRNMDNKPCRFSLTSNF, “inactive”. Take KTNRFHIDFAIDTPRLSLFL: the amyloid nucleation score result is “inactive”. To KTYEETSDTYYFQVLFTNPI belongs “inactive”; to KVCVIVVLLHTTRCQKFYQY, “inactive”; to KVNTLRVEDIWTSQAFVCMV, “inactive”. To KVRQARGILASEGIGQETVG belongs 1.33 ± 0.14; to KVSWMFYRCSDNNN, 1.66 ± 0.074.

As for KVVMGVGLQRDESGIEGQLG, the amyloid nucleation score entry is “inactive”. To KVYKLGVSRRSVKAT belongs “inactive”; to KVYSIYTNKNFGCFDYNWCI, “inactive”; to KWASFLFYFDVMSYSARELN, -0.32 ± 0.84. In the case of KWDSKFRYLADGHNQLPC, the amyloid nucleation score came out at 0.605 ± 0.38. For the substance KYGENDLRFENITYLFGV, the amyloid nucleation score entry is “inactive”. To KYNHIYVYKSIRCVQGVLDG belongs “inactive”. Turning to KYNPTMSNYSGLLWKIGVGT, the amyloid nucleation score entry is “inactive”.

For KYNWLNKVSTIGTSKGSSIG, the amyloid nucleation score result was “inactive”. To KYTVEVNFLAFLRHIYCTSG belongs “inactive”; to KYYLALIYSKLRMIVSCFGF, 0.033 ± 0.44. As for LAAEFTFMRPARGYFGNKVG, the entry is “inactive”; as for LACLIHS, “inactive”.

Consider LACPWLTLIGYVQIRCNFDG, for which the amyloid nucleation score result was “inactive”. As for LADWQMGVPRGLQVMVCTTL, the entry is “inactive”; as for LAFFTHNIYF, 1.97 ± 0.1; as for LAFVANY, “inactive”. Substance LAGSCMGLMCWVVDARAVGR gave an amyloid nucleation score of 0.06 ± 0.64. As for LAGSSVVKLYGPVLRFFSSL, the entry is “inactive”; as for LALFVSCICVIVSELFFTMN, “inactive”. To LARFMANLTGNC belongs “inactive”; to LARLYYHFLEVHYVLCIC, “inactive”. For LARPHDNSGCCSSNCDLRSC, the amyloid nucleation score result was “inactive”. As for LARRRSTCDICWLSYKATDL, the entry is “inactive”; as for LARVFASTGSSCSRSMNAMN, “inactive”.

LASNDFTDVLHWC: the amyloid nucleation score entry was “inactive”. As for LASRSHKHINATLAHLNPLL, the entry is “inactive”; as for LAVSGKEHAK, “inactive”; as for LAVVDCGYM, “inactive”. To LAWVLMHSAKLGLKKRQAWG belongs “inactive”. For LAYQGSGLIQQLAGLKHTTV, the amyloid nucleation score entry was “inactive”. To LCAQGYDLFALCKVYWLREW belongs “inactive”.

For LCDSGWELMYKLCTDKDMIL, the amyloid nucleation score result is “inactive”.

With LCDVQNTNNW, the amyloid nucleation score result was “inactive”. Regarding LCEKYFLRRFYFMTTGLSGR, the amyloid nucleation score entry is “inactive”. On to LCETYYHHTARGLHLASLVS, for which the amyloid nucleation score entry was “inactive”. As for LCFFVERRLKGYDVGLSNLL, the entry is “inactive”; as for LCGATCLMFMLHVKCTSGFE, “inactive”; as for LCHRY, “inactive”. On to LCHWFL, for which the amyloid nucleation score entry was “inactive”. To LCIFKVLF belongs 0.969 ± 0.16; to LCISKKVMNFSNASHGGQQC, “inactive”; to LCITPNLKSFFESYVRFSEL, “inactive”. LCLCVRFFKAFNRFNYRRFF: the amyloid nucleation score result is “inactive”. To LCLCYNLMSLLLLHLCREGQ belongs “inactive”.

As for LCLFLSQMFSNRYEIFPLFV, the amyloid nucleation score entry was “inactive”. To LCLVLWVSK belongs “inactive”; to LCSIVWRGIRDAYGQRYYVV, “inactive”; to LCTKGYWFKAPNYLLSKLCF, “inactive”.

Take LCWPGTVDWFQGWRKAG: the amyloid nucleation score entry is “inactive”. As for LDAFRRLLEGASRTKCTF, the entry is “inactive”. Take LDEFY: the amyloid nucleation score entry is “inactive”. LDGFSSKILGMFEEAVVYRM: the amyloid nucleation score result is “inactive”.
